Source: article PMC4266902, “Néstor-Guillermo Progeria Syndrome: a biochemical insight into Barrier-to-Autointegration Factor 1, alanine 12 threonine mutation” (BMC Molecular Biology, 2014)

T1: BANF1 WT (UniProt O75531 1-89)
T1 sequence: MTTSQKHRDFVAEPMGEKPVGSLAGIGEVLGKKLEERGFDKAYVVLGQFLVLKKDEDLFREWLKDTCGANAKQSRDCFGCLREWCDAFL

B1: FAM-labelled short dsDNA (dsDNA)
DNA 1: CTCTCCCTTCGCTCCTTTCCTCT
DNA 2: AGAGGAAAGGAGCGAAGGGAGAG
B2: recombinant HexaHis-tagged wild type BANF1 (Barrier-to-Autointegration Factor 1) (natural protein, human, UniProt O75531 1-89, looked up)
chain: MTTSQKHRDFVAEPMGEKPVGSLAGIGEVLGKKLEERGFDKAYVVLGQFLVLKKDEDLFREWLKDTCGANAKQSRDCFGCLREWCDAFL
notes: Barrier-to-Autointegration Factor 1 (BANF1, BAF1), human, 89 amino acid residues; BANF1 CDS sub-cloned into pEX-N-His (Origene); also called BANF1 WT; WT BANF1; not shown: His6, N-terminal, kept
B3: recombinant HexaHis-tagged A12T BANF1 (natural protein, human, UniProt O75531 1-89, looked up)
chain: MTTSQKHRDFVTEPMGEKPVGSLAGIGEVLGKKLEERGFDKAYVVLGQFLVLKKDEDLFREWLKDTCGANAKQSRDCFGCLREWCDAFL
notes: Barrier-to-Autointegration Factor 1 (BANF1, BAF1), human, 89 amino acid residues; BANF1 CDS in pEX-N-His (Origene) with the patient mutation c.34G>A [p.A12T] made by site-directed mutagenesis; A12T is the mutation found in patients with Nestor-Guillermo Progeria Syndrome; also called BANF1 A12T; A12T mutant; not shown: His6, N-terminal, kept

How the values were obtained:
BANF1 WT = biological target: T1, BANF1 WT; experiment: EMSA; 0-1 uM protein, 10 nM DNA, 30 min 4 C; 10 mM Tris-HCl pH 7.0, 20 mM NaCl, 100 ng/mL BSA, 5 mM DTT, 30 min at 4 C; 7% PAGE 0.5x TBE at 4 C (short DNA) or 0.6% agarose 1x TBE (plasmid); conditions: protein: recombinant; tags: N-terminal His6; label: 5'-FAM on strand 1; blunt
[1] = biological target: the molecule itself; experiment: SEC; gel filtration of recombinant HexaHis BANF1, absorbance at 280 nm against elution volume; column calibrated with carbonic anhydrase (29 kDa) and myoglobin (17 kDa)

| Binder | binding result (BANF1 WT) | stoichiometry N [1] |
| --- | --- | --- |
| B1 | binds | – |
| B2 | – | 2 |
| B3 | – | 2 |
